Experimental data published in article PMC3681763 (2013).

B2: (C2)RAGE-GFP (domain or fragment)
chain: EPVPLEEVQLVVEPEGGAVAPGGTVTLTCEVPAQPSPQIHWMKDGVPLPLPPSPVLILPEIGPQDQGTYSCVATHSSHGPQESRAVSISIIEPGEEGPTAGSVGGS

How the values were obtained:
Assay in all cases: ELISA
Apt#31 = target: Apt#31
Apt#48 = target: Apt#48
[1] = target: Peptide aptamer PA #27 (anti-C1 domain), purified, in the D26A, K57E Thioredoxin scaffold (E. coli, UniProt P0AA25 = thioredoxin)
[2] = target: Peptide aptamer PA #44 (anti-V domain), purified, in the D26A, K57E Thioredoxin scaffold (E. coli, UniProt P0AA25 = thioredoxin)
[3] = target: Peptide aptamer PA #71 (anti-C2 domain), purified, in the D26A, K57E Thioredoxin scaffold (E. coli, UniProt P0AA25 = thioredoxin)
(C2)RAGE-GFP = target: B2

B1: (VC1)RAGE-GFP (domain or fragment)
chain: AQNITARIGEPLVLKCKGAPKKPPQRLEWKLNTGRTEAWKVLSPQGGGPWDSVARVLPNGSLFLPAVGIQDEGIFRCQAMNRNGKETKSNYRVRVYQIPGKPEIVDSASELTAGVPNKVGTCVSEGSYPAGTLSWHLDGKPLVPNEKGVSVKEQTRRHPETGLFTLQSELMVTPARGGDPRPTFSCSFSPGLPRHRALRTAPIQPRVWEPVPLEEVQLVVEPEG
Kd (Apt#31): 42 nM | Kd (Apt#48): 152 nM | Kd [1]: 32 nM | Kd [2]: 164 nM

B2
Kd [3]: 14500 nM

B3: Peptide aptamer PA #103 (anti-C2 domain), purified, in the D26A, K57E Thioredoxin scaffold (designed binder)
chain: SDKIIHLTDDSFDTDVLKADGAILVAFWAEWIQLRVRMKLVKMIAPILDEIADEYQGKLTVAELNIDQNPGTAPKYGIRGIPTLLLFKNGEVAATKVGALSKGQLKEFLDANLA
Kd ((C2)RAGE-GFP): 1340 nM
